These results are taken from patent publication US20160228506A1, “Compositions and Formulations for Prevention and Reduction of Tumorigenesis, Cancer Cell Proliferation and Invasion, and Methods of Production and Use Thereof in Cancer Treatment” (PRONUTRIA, INC., priority 2013, published 2016).

Data set [1] in a line: Intact half-life during simulated gastric fluid (SGF) digestion. The following applies: for Half-life: purified proteins, chip electrophoresis.
Another data set concerns Pancreatin. Type of data set: in vitro ADME, Porcine. How it is done: Control samples were protease-free.
Analyses were performed using an Agilent 1100 series system.

Data set [2] is described as follows: SGF digest of 168 nutritive polypeptide library, intact protein by LC-MS/MS. The format is in vitro ADME. As to conditions: for % Intact Protein at 10 min: 168 nutritive polypeptide library SGF digest, LC-MS/MS spectral counts; for % Remaining at 10 min: 168 nutritive polypeptide library, LC-MS/MS. Put shortly: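 Spectral-count ratios (10 min vs 0 min, peak gel fraction plus neighbours) give the percent of each protein left intact after SGF digestion of a pooled, IMAC-purified 168-member recombinant library. Samples were gel-fractionated, trypsinised in-gel and run on Orbitrap nanoLC-MS/MS, requiring two unique peptides at 1% FDR.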

The next data set is described as follows: pH solubility. The format is physicochemical. As to conditions: for pH Range where Protein is >80% detected as Soluble and A650 <1 OD: Low: lower pH; for pH Range where Protein is >80% detected as Soluble and A650 <1 OD: High: upper pH. How it is done:
pH Solubility. […] Protein was either lyophilized and then resuspended in buffer cocktail mixtures, or concentrated and then spiked into buffer cocktail mixtures at a final protein concentration of 5 to 30 mg/ml. As a control, protein was also dissolved in a solution of 8 M urea. Protein solutions were shaken for 10 min at room temperature. Turbidity of proteins was determined by measuring the absorbance of protein solutions at 650 nm. The protein solution was then centrifuged for 10 min at 1100×g to pellet undissolved or precipitated protein. The soluble protein fraction (supernatant) was sampled and protein concentration was measured by one or more of the following methods: Coomassie Plus Protein Assay (Pierce), Chip electrophoresis, gel electrophoresis, and/or absorbance at 280 nm. The pH range over which select proteins remained greater than 80% soluble as determined by Bradford and the A650 value are listed in Table E31C.

The nature of data set [3]: Thermostability, temperature of aggregation (ProteoStat Thermal Shift). Details: key to Tagg: temperature in °C. The format is physicochemical. Put shortly:
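Protein at about 10 mg/ml in citric acid/dibasic sodium phosphate buffers spanning pH 2.8–7.1, with 1× ProteoStat TS detection reagent. Samples heated from 25 °C to 95 °C at 0.5 °C per 30 sec in a real-time PCR thermocycler. Aggregation followed by fluorescence through a Texas Red filter.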

Data set [4] relates to SEQID-00338 kinase activity (AMP + ATP→ADP). The data set can be described thus: Kinase activity of SEQID-00338 (ADP-Glo Max Assay). The format is biochemical. The following applies: 7 μg/mL, 30 minute reaction at 30° C. How it is done:
The ADP-Glo™ Max Assay was obtained from Promega (Catalog number V7001, Madison, Wis.). Adenosine Monophosphate was obtained from Sigma-Aldrich (Catalog number A1752, St. Louis, Mo.). 5× Kinase Buffer was prepared w/ 1.211 g Tris Base (Catalog number BP152-2, Fisher Bioreagents, Pittsburgh, Pa.), 692 μL 12% hydrochloric acid solution (Catalog number BDH3026-500MLP, VWR, Radnor, Pa.), 10.0 mL 500 mM magnesium chloride (Catalog number BP214-500, Fisher Bioreagents, Pittsburgh, Pa.) and the volume brought to 50 mL with MilliQ water and filtered through 0.22 μm PES filter (Catalog number SCGP00525, Millipore, Billerica, Mass.) into a sterile 50 mL tube.
Twelve his-tag purified mutant proteins and the wild-type protein at 35 μg/mL in Tris buffer were serially diluted to 7.0 and 1.4 μg/mL. Prepared kinase reaction mix at 0.5 mM AMP/0.5 mM ATP to test for activity and at 0 mM AMP/0 mM ATP to assay background activity by diluting 5× Kinase Buffer with appropriate volumes of 10 mM AMP and 10 mM ATP in MilliQ water. Duplicate reactions were prepared by mixing 9 μL of the reaction mixture with 6 μL of diluted SEQID-00338, mixing by pipetting up and down and dispensing 5 μL into a 384-well white OptiPlate (PerkinElmer, Waltham, Mass.). An ADP standard curve was prepared by serially diluting 4 mM ADP in MilliQ water and adding kinase buffer to 1× for a standard at 0.0005, 0.001, 0.005, 0.01, 0.05, 0.1, 0.5, 1, 2, 3, and 4 mM ADP. The plate was covered with a foil plate seal and incubated at 30° C. for 30 min. Following the kinase reaction, 5 μL of ADP-Glo™ Reagent was added to each well. The plate was sealed with a foil plate seal and placed on a horizontal plate shaker at 450 rpm for 2 minutes at room temperature. The plate was removed from the plate shaker and incubated at room temperature for 40 minutes. The plate was then centrifuged for 15 seconds at 1109×rcf and 10 μL of ADP-Glo™ Max Detection Reagent was added. The plate was sealed with a foil plate seal and shaken on a horizontal plate shaker at 450 rpm at room temperature for 2 minutes. The plate was then removed from the plate shaker and incubated at room temperature for 60 minutes. The plate was centrifuged for 15 seconds at 1109×rcf and the luminescence read on an EnspireAlpha plate reader (PerkinElmer, Waltham, Mass.).
The ADP standard curve was used to determine the concentration of ADP in sample wells in the presence or absence of substrate. Concentrations were determined by performing a non-linear 4 parameter logistic on the X=log(X) transformed ADP standard luminescence values. […] Where the background concentration of ADP in the absence of substrate was calculable the average of those values were subtracted from the calculated ADP concentration in the substrate incubated wells. Activity knock out was calculated by percentage activity relative to purified wild-type protein at the same concentration.
(In general: ADP-Glo turns the ADP formed in a reaction into a luminescent signal.)

Setting [5] is: native and modified forms of SEQID-00363, gel electrophoresis.
The mark [6] stands for this setting: SGF pH 1.5, pepsin:polypeptide 1:20 w/w, 37° C., intact protein.

B1: Reduced and alkylated SEQID-00363: SEQID-00363 with disulfide bonds reduced and alkylated (protein)
chain: ATLDSWLSNEATVARTAILNNIGADGAWVSGADSGIVVASPSTDNPDYFYTWTRDSGLVLKTLVDLFRNGDTSLLSTIENYISAQAIVQGISNPSGDLSSGAGLGEPKFNVDETAYTGSWGRPQRDGPALRATAMIGFGQWLLDNGYTSTATDIVWPLVRNDLSYVAQYWNQTGYDLWEEVNGSSFFTIAVQHRALVEGSAFATAVGSSCSWCDSQAPEILCYLQSFWTGSFILANFDSSRSGKDANTLLGSIHTFDPEAACDDSTFQPCSPRALANHKEVVDSFRSIYTLNDGLSDSEAVAVGRYPEDTYYNGNPWFLCTLAAAEQLYDALYQWDKQGSLEVTDVSLDFFKALYSDAATGTYSSSSSTYSSIVDAVKTFADGFVSIVETHAASNGSMSEQYDKSDGEQLSARDLTWSYAALLTANNRRNSVVPASWGETSASSVPGTCAATSAIGTYSSVTVTSWPSIVATGGTTTTATPTGSGSVTSTSKTTATASKTSTSTSSTSCTTPTAVAVTFDLTATTTYGENIYLVGSISQLGDWETSDGIALSADKYTSSDPLWYVTVTLPAGESFEYKFIRIESDDSVEWESDPNREYTVPQACGTSTATVTDTWR
modifications: disulfides reduced and alkylated; Aspergillus niger
With B1, in data set [1] (setting [5]), the “SGF Half-life (t½)” value was 1220 s. Also, in the data set with Pancreatin, the “Free Leu (μM) at 120 min time point of Pancreatin digest” value (shortened to “Free Leu (μM) at 120 min time point”) was 598.1 µM.

B2: Heat-denatured SEQID-00363: SEQID-00363 30 g/L in 10% PBS rapidly heated to 95° C. (protein)
chain: B1 chain
modifications: heat-denatured; Aspergillus niger
Take B2: the “SGF Half-life (t½)” value in data set [1] (setting [5]) was 1220 s. In addition, in the data set with Pancreatin, the “Free Leu (μM) at 120 min time point” value came to 763.5 µM.

B3: SEQID-00485: nutritive polypeptide naturally produced in Chickpea, recombinantly expressed in E. coli (protein, listed as Cicer arietinum)
chain: MTKTGYINAAFRSSRNNEAYLFINDKYVLLDYAPGTSNDKVLYGPSFVRDGYKSLAKTIFGTYGIDCSFDTEYNEAFIFYENFCARIDYAPHSDKDKIISGPKKIADMFPFFKGTVFENGIDAAFRSTKGKEVYLFKGDKYARIDYLTNRLVQNIKSISDGFPCLRGTIFEAGMDSAFASHKTNEAYLFKGEYYARINFTPGSTNDIMGGVKKTLDYWPSLRGIIPLE
On to B3, for which the “% Intact Protein at 10 min” value in data set [2] amounted to 0%. Also, the “% Remaining at 10 min” value in data set [2] is on record as 0%. The “SGF Half-life (t½)” value in data set [1] (setting [6]) was 30 s. Further, in data set [1], the “Half-life” value was 30 s. The “pH Range where Protein is >80% detected as Soluble and A650 <1 OD: Low” value in the data set “pH solubility” stood at 4.6. In addition, in the data set “pH solubility” (other pH), the “pH Range where Protein is >80% detected as Soluble and A650 <1 OD: Other” value amounted to 2.8. Also, the “pH Range where Protein is >80% detected as Soluble and A650 <1 OD: High” value in the data set “pH solubility” turned out to be 7.1. Moreover, the Tagg was 31.5 in data set [3] (pH 5.0); 34.5 in data set [3] (pH 5.6); 36 in data set [3] (pH 6.0); 36.5 in data set [3] (pH 6.5); 36 in data set [3] (pH 7.1). Besides, the “Free Leu (μM) at 120 min time point” value in the data set with Pancreatin turned out to be 764.9 µM.

B4: D91I: single amino acid mutant of SEQID-00338, position 91 (protein, listed as Saccharomyces cerevisiae)
chain: MSSSESIRMVLIGPPGAGKGTQAPNLQERFHAAHLATGDMLRSQIAKGTQLGLEAKKIMDQGGLVSDDIMVNMIKDELTNNPACKNGFILIGFPRTIPQAEKLDQMLKEQGTPLEKAIELKVDDELLVARITGRLIHPASGRSYHKIFNPPKEDMKDDVTGEALVQRSDDNADALKKRLAAYHAQTEPIVDFYKKTGIWAGVDASQPPATVWADILNKLGKD
modifications: source: /note="strain ATCC 204508 / S288c"
Turning to B4, the “AVG percent activity relative to purified wild-type protein” value in data set [4] is listed as 0.4%.

B5: SEQID-00298 (BS): nutritive polypeptide naturally produced in Cow (protein, listed as Bos taurus)
chain: MGLSDGEWQLVLNAWGKVEADVAGHGQEVLIRLFTGHPETLEKFDKFKHLKTEAEMKASEDLKKHGNTVLTALGGILKKKGHHEAEVKHLAESHANKHKIPVKYLEFISDAIIHVLHAKHPSDFGADAQAAMSKALELFRNDMAAQYKVLGFHG
B5: the “SGF Half-life (t½)” value in data set [1] (setting [6]) is 6 s. Also, the “Free Leu (μM) at 120 min time point” value in the data set on Pancreatin amounted to 1030.8 µM.

B6: SEQID-00605: nutritive polypeptide naturally produced in Mushroom, recombinantly expressed in E. coli (protein, listed as Agaricus bisporus)
chain: MLEFTLNDGNRIPAIAFGTGTALYNQDASAFVRLAIETGITHLDGAQMYENEETLGKGIKSSGKPRSELFITTKLHILKPGQTVRETLVESLGKIGVDYVDLFLIHDPTANRKEATLSEIWSQLEALKNEGLTKSIGVSNFKVEDLNEILPGAKIIPAVNQIEFHPYVLKAASPIIELCKAKGIIVASYGGQTPIVRATDGPLKDLLPKIRERLEQTRGSPVTEGQVLTKWLLQKNVIAISTSSKESRIKEFLSTVDVPDLTKQEIESIDNAGSTIHKRIYMKHIFNE
modifications: source: /note="var. bisporus"; source: /note="strain H97 / ATCC MYA-4626 / FGSC 10389"
notes: nutritive polypeptide naturally produced in Mushroom, recombinantly expressed in E. coli
In the case of B6, in data set [2], the “% Intact Protein at 10 min” value turned out to be 0%. For the same molecule, the “% Remaining at 10 min” value in data set [2] stood at 0%. For the same molecule, the “SGF Half-life (t½)” value in data set [1] (setting [6]) is 12 s. The “Half-life” value in data set [1] was 12 s. For the same molecule, the “pH Range where Protein is >80% detected as Soluble and A650 <1 OD: Low” value in the data set “pH solubility” was 5.6. The “pH Range where Protein is >80% detected as Soluble and A650 <1 OD: High” value in the data set “pH solubility” was 7.1. Moreover, the Tagg in data set [3] (pH 4.6) is recorded as 40.5; in data set [3] (pH 5.0) it was 33.5; in data set [3] (pH 5.6) it was 37; in data set [3] (pH 6.0), 44.5; in data set [3] (pH 6.5) it was 38.5; in data set [3] (pH 7.1), 39. Further, in the data set with Pancreatin, the “Free Leu (μM) at 120 min time point” value came out at 937.1 µM.
